{
  "source": "paper doi:10.1101/2023.08.17.553727",
  "target": "B’β-GFP (Arabidopsis thaliana) (UniProt O04376)",
  "sequence (O04376 whole entry)": "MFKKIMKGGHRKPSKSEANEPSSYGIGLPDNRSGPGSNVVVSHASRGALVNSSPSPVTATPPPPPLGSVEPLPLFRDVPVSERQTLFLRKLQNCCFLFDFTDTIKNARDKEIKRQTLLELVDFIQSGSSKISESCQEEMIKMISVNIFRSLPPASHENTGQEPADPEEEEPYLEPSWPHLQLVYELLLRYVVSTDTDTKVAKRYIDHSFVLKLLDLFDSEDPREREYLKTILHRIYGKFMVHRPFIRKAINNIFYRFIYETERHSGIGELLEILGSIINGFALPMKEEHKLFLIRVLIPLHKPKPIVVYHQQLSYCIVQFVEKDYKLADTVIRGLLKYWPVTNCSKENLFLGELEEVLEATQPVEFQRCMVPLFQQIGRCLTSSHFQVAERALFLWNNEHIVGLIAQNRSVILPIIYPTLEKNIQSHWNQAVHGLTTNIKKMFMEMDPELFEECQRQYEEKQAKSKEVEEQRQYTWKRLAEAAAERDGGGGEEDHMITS",
  "assay": "co-IP",
  "data": [
    {"substance": "PP2A C subunit (from UniProt Q07099 1-306) (enzyme)", "values": [
      {"measurement": "binding ability to the C subunit relative to YFP-B’β (fold of YFP-B’β)", "result": 0.33}
    ]}
  ]
}
